According to the supplement of paper PMC9170038:

Tested on: MS2 coat protein
Assay: apparent KD of MS2 coat protein; designed switch direction (-1 OFF switch, 1 ON switch): -1; higher = weaker reporter binding
Summary of the method: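 Designed RNA switches with common flanks were made on Illumina chips by stalled E. coli RNA polymerase. Titration with SNAP-549-labelled MS2 coat protein doubled from 0.7 or 1.5 nM up to 3 µM. Apparent KD is each design's median over clusters after curve-fitting normalised fluorescence.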

[1] = input ligand: microRNA oligo, concentration not stated
[2] = Eterna round: R95, input ligand: FMN 200 uM
[3] = Eterna round: R95, input ligand: microRNA oligo, concentration not stated
[4] = Eterna round: R95, input ligand: none

Sequence | apparent KD of MS2 coat protein (input ligand: FMN 200 uM) [nM] | apparent KD of MS2 coat protein (input ligand: none) [nM] | apparent KD of MS2 coat protein [1] [nM] | apparent KD of MS2 coat protein [2] [nM] | apparent KD of MS2 coat protein [3] [nM] | apparent KD of MS2 coat protein [4] [nM]
AAAUUCAGAGGAUAUGCGCAUAGAUAAGACUUUUUUUUUUAACAUGAGGAUCACCCAUGUAGAAGGCUGUAACA [Ex2 #50] (Eterna round: R97, puzzle: Exclusion 2) | 25.4 | 21.2 | – | – | – | –
AAAUUGUGAGGAUAUUCGUAGUACUCGGAGACGAGUAUUACGGAGAAGGCACAUGAGGAUCACCCAUGUUCCUU [Mat - Exclusion 4 - JL Mod - D20] (Eterna round: R97, puzzle: Exclusion 4) | 88.3 | 16.3 | – | – | – | –
AACAGGACAGGAUAUACAUGAGGAUCACCCAUGUAGGAAACAAGCAGAGUACCAAAAAGUAGAAGGGUCAUGGA [Ruby 30] (Eterna round: R96, puzzle: Exclusion 3) | – | – | 53.6 | – | – | –
AACAGUACAGGAUAUACAUGAGGAUCACCCAUGUGACAAUUAAGUGGCGUACCACAAAGUAGAAGGGUACUGGA [Ruby 86] (Eterna round: R96, puzzle: Exclusion 3) | 206 | 31 | 24.3 | – | – | –
AACAGUCUGGAGGAUAUGCUGGAUUAAAAUCUGGCAGAAGGCUGGACAUGAGGAUCACCCAUGUAAAUACUACC [Omei Ex6 A2a] (Eterna round: R97, puzzle: Exclusion 6) | 73.1 | 24.8 | – | – | – | –
AACAUGAGGAUCACCCAUGUAAUGGACAGAUCACCGACCACGCAGGAUAUUAGGCCUCAAAUUCUUAAGAAGGGCGAGGAUGUG [Eternabot solution 49] (Eterna round: R96, puzzle: Exclusion NG 3) | 50.3 | 66.9 | 52 | – | – | –
AACCGUCGUCAGGAUAUUUGCCAGGAUUCUAGCGAAGAAGGGACGACAUGAGGAUCACCCAUGUUGGCCACUCG [EX6 B.26] (Eterna round: R97, puzzle: Exclusion 6) | 188 | 36.9 | – | – | – | –
AACCUACAUGAGGAUCACCCAUGUGAGGAUAUAUUGGUAUUUAUAUUAUUUUUUAGAGGUAGAAGGCGCGUGAU [JR_Exc1_Sub021] (Eterna round: R97, puzzle: Exclusion 1) | 14.2 | 14.2 | – | – | – | –
AACCUGAGGCAUAGCUUUAGGUUUACAUGAGGAUCACCCAUGUAGGAUAUGGUAGGCAUAGCUUACCAGAAGGACAUGAAAAUU [Mat - Exclusion NG 3 - Mod of JL - D30] (Eterna round: R96, puzzle: Exclusion NG 3) | 417 | 55.6 | 47.9 | – | – | –
AACCUGAGGCUUUGCUUUAGGUGUACAUGAGGAUCACCCAUGUAGGAUAUGGUAGGCAAAGCUUACCAGAAGGACAUUUAGGUU [Mat - Exclusion NG 3 - Mod of JL - D43] (Eterna round: R96, puzzle: Exclusion NG 3) | 72.8 | 41.4 | 34.3 | – | – | –
AACCUGAGGCUUUGCUUUAGGUGUACAUGAGGAUCACCCAUGUAGGAUAUGGUAGGCUUUGCUUACCAGAAGGACAUUGGCGUU [JL ENG3 1.14] (Eterna round: R96, puzzle: Exclusion NG 3) | 388 | 97.3 | 66.2 | – | – | –
AACGAUACGCUCAUAAGAACAUGAGGAUCACCCAUGUGUGGUGAGGAUAUCCACCCAGAGGGAAAGGAGAAGGUACCAGUGGAC [Orsoenbere] (Eterna round: R96, puzzle: Exclusion NG 3) | 222 | 303 | 143 | – | – | –
AAGAAACAUGAGGAUCACCCAUGUGAGGAUAUGAAAAAGAAAAGAAAAGAAAGAAGAUUCAGAAGGCACAAAGG [salish99-ex1_r3_021] (puzzle: Exclusion 1) | – | – | – | 60.7 | 31.9 | 33.9
AAGAAACAUGAGGAUCACCCAUGUGAGGAUAUGAACCGCCCGGCGUAAGCAAAAUAAAUCAGAAGGCACAAAGG [salish99_ex1_r4_006] (Eterna round: R97, puzzle: Exclusion 1) | 38.3 | 32.2 | – | – | – | –
AAGAAACAUGAGGAUCACCCAUGUGAGGAUAUGACAAAGAAAAGAAAAGAAAGAAGAAUCAGAAGGCACAAAGG [salish99-ex1_r3_033] (puzzle: Exclusion 1) | – | – | – | 121 | 83.1 | 96.6
AAGAAACAUGAGGAUCACCCAUGUGAGGAUAUGAGGAAGAAAAGAAAAGAAAGAAGAUUCAGAAGGCACAAAGG [salish99-ex1_r3_058] (puzzle: Exclusion 1) | – | – | – | 96.3 | 35.1 | 59.1
AAGAAACAUGAGGAUCACCCAUGUGAGGAUAUGUAAAAUAAAAGAAAAGAAAGAAGAAACAGAAGGCACAAAGG [Mat - Mod of Hog D13] (puzzle: Exclusion 1) | – | – | – | 47.3 | 35.4 | 47.5
AAGAAGUGAGGAUAUGGCCGGGUCCCUGGGUUUGGACCCGGCCAGAAGGCACAUGAGGAUCACCCAUGUAAGAA [Excls4-X] (puzzle: Exclusion 4) | – | – | – | – | 21.1 | –
AAGAAUUUAUAGGAUAUCGAAAGUAUAAUUUAACGAGAAGGAUGAACAUGAGGAUCACCCAUGUGGUAUCAUGG [JL-ex6-3.09] (puzzle: Exclusion 6) | – | – | – | 145 | 232 | 304
AAGAAUUUGCAGGAUAUCUACCACGAUAGGGAUAGAGAAGGGUAAACAUGAGGAUCACCCAUGUAGUAGGUCCG [Eternabot (L2) Solution 91] (Eterna round: R97, puzzle: Exclusion 6) | 61.3 | 115 | – | – | – | –
AAGACUCGCAAUAAGAACAAGCACUCCGAACUAUAAGUAACAUGAGGAUCACCCAUGUCAAGGGUGCCAAAGUCAAA [JR_Sensorv2_tov2_Sub302] (Eterna round: R96, puzzle: Sensor v2, turn-off variant 2) | 15.4 | 18.6 | 16 | – | – | –
AAGAGUGCAGGAUAUACUUGGUAGGGCGGGUGGAUGAAGUGACAUGAGGAUCACCCAUGUAGAAGGGCAGAGAG [JR_Exclu2_Sub055] (puzzle: Exclusion 2) | – | – | – | 24.6 | 21.4 | 25.7
AAGAUGCGGGUAGGAUAUGGAGAGAAAGAAAGACCAGAAGGAUUGGUCACACAACAUGAGGAUCACCCAUGUGUGUGUUGCGAA [EX ng 1 6.1] (Eterna round: R96, puzzle: Exclusion NG 1) | – | – | 9.22 | – | – | –
